Substrate in data set [1]: Cc1cc(=O)oc2cc(NC(=O)[C@@H]3CCCN3C(=O)CN)ccc12
The experiment in a line: fluorescence of released MCA; Michaelis-Menten nonlinear fit. The format is biochemical, Homo sapiens. As to conditions: […] substrate, […] sodium phosphate pH […] EDTA, […] Tween […] K, […] min. The text has this:
fluorescence of released MCA; Michaelis-Menten nonlinear fit on Human DPP IV

Substrate in data set [2]: Cc1cc(=O)oc2cc(NC(=O)[C@@H]3CCCN3C(=O)CN)ccc12
The data set is described as above. Type of data set: biochemical, Pseudoxanthomonas mexicana. The settings on record: […] substrate, […] sodium phosphate pH […] EDTA, […] Tween […] K, […] min. The text has this: fluorescence of released MCA; Michaelis-Menten nonlinear fit on PmDAP IV

This passage reports Km, kcat and kcat/Km results from PMC5807507, “Crystal structures of a bacterial dipeptidyl peptidase IV reveal a novel substrate recognition mechanism distinct from that of mammalian orthologues” (Scientific Reports, 2018).

B1: Human DPP IV (Homo sapiens) (protein)
chain: SRKTYTLTDYLKNTYRLKLYSLRWISDHEYLYKQENNILVFNAEYGNSSVFLENSTFDEFGHSINDYSISPDGQFILLEYNYVKQWRHSYTASYDIYDLNKRQLITEERIPNNTQWVTWSPVGHKLAYVWNNDIYVKIEPNLPSYRITWTGKEDIIYNGITDWVYEEEVFSAYSALWWSPNGTFLAYAQFNDTEVPLIEYSFYSDESLQYPKTVRVPYPKAGAVNPTVKFFVVNTDSLSSVTNATSIQITAPASMLIGDHYLCDVTWATQERISLQWLRRIQNYSVMDICDYDESSGRWNCLVARQHIEMSTTGWVGRFRPSEPHFTLDGNSFYKIISNEEGYRHICYFQIDKKDCTFITKGTWEVIGIEALTSDYLYYISNEYKGMPGGRNLYKIQLSDYTKVTCLSCELNPERCQYYSVSFSKEAKYYQLRCSGPGLPLYTLHSSVNDKGLRVLEDNSALDKMLQNVQMPSKKLDFIILNETKFWYQMILPPHFDKSKKYPLLLDVYAGPCSQKADTVFRLNWATYLASTENIIVASFDGRGSGYQGDKIMHAINRRLGTFEVEDQIEAARQFSKMGFVDNKRIAIWGWSYGGYVTSMVLGSGSGVFKCGIAVAPVSRWEYYDSVYTERYMGLPTPEDNLDHYRNSTVMSRAENFKQVEYLLIHGTADDNVHFQQSAQISKALVDVGVDFQAMWYTDEDHGIASSTAHQHIYTHMSHFIKQCFSLP
notes: homodimer
As a reminder, the Km is the substrate concentration at which the rate is half of its maximum. Broadly, the kcat is the maximal rate divided by the concentration of active sites. One may read the kcat/Km as the turnover number divided by the Michaelis constant. In the case of B1, in data set [1], the Km worked out at 37.1 ± 1.6 µM, the kcat is 35.3 ± 1 s⁻¹ and the catalytic efficiency (kcat/Km) came to 952000 ± 13000 M⁻¹ s⁻¹.

B2: PmDAP IV (Pseudoxanthomonas mexicana) (protein)
chain: AEKLTLEAITGSAPLSGPTLTKPQIAPDGSRVTFLRGKDRDRNRLDLWEYDIASGQTRLLVDSSVVLPGEEVLSDEEKARRERQRIAALSGIVDYQWSPDGKALLFPLGGELYFYDLTKSGRDAVRKLTNGGGFATDPKISPKGGFVSFIRDRNLWAIDLASGKEVQLTRDGSDTIGNGVAEFVADEEMDRHTGYWWAPDDAAIAFARIDETPVPVQKRYEVYPDRTEVVEQRYPAAGDHNVRVQLGVIAPKTGARPRWIDLGKDPDIYLARVDWRDPQRLTFQRQSRDQKKIELIETTLTNGTQRTLVTETSTTWVPLHNDLRFLKDGRFLWSSERSGFEHLYVASEDGSTLTALTQGEWVVDSLLAIDEAAGLAYVSGTRDGATEAHVYAVPLSGGEPRRLTQAPGMHAATFARNASVFVDSWSSDTTLPQIELFKADGTKLATLLVNDVSDATHPYAKYRAAHQPTAYGTLTAADGTTPLHYSLIKPAGFDPKKQYPVVVFVYGGPAAQTVTRAWPGRSDSFFNQYLAQQGYVVFTLDNRGTPRRGAAFGGALYGKQGTVEVDDQLRGIEWLKSQAFVDPARIGVYGWSNGGYMTLMLLAKHDEAYACGVAGAPVTDWALYDTHYTERYMDLPKANEAGYREASVFTHVDGIGAGKLLLIHGMADDNVLFTNSTKLMSELQKRGTPFELMTYPGAKHGLRGSDLLHRYRLTEDFFARCLKP
notes: M12I lies in the removed signal; no tag; 723 residues, 82-kDa; homodimer; crystal model Ala22-Pro745
For B2, in data set [2], the Km is on record as 19.4 ± 0.8 µM, the catalytic constant (kcat) was found to be 19.2 ± 0.4 s⁻¹ and the kcat/Km was determined as 989000 ± 35000 M⁻¹ s⁻¹.
